Test [1] addresses T1, NKG2A/CD94 on CHO cells (CHOK1-NKG2A-CD94) (human, UniProt P26715 1-233; Q13241 1-179, limits assumed).
T1 construct: whole, on cells; also called CHO cells over-expressing NKG2A/CD94; CHO cell line over expressing ectopic NKG2A
In words: FACS on CHO cells over-expressing human NKG2A (FIG. 45F). The method, then: (§1) Then wash the cells 3 times with 170 µL FACS buffer. Re-suspend the cells at 100 µL/well with secondary antibody (goat anti-human Ig Fab-FITC, Cat # 2085-02, Southern biotech) with 1:400 dilution and incubate the plate for 30 min at 4° C. in dark. Centrifuge the plate at 2000 rpm, 4° C. for 5 min and discard supernatant. Then wash the cells 3 times with FACS buffer and analyze the sample with FACS verse. The fluorescence intensity of the staining was measured using flow cytometer (BD, FACSVerse). The geometric mean fluorescence intensity (GMFI; median fluorescence intensity (MFI)) of set antibodies staining was calculated (BD FACSuite software). Dose-response curves were generated and EC50s for thetrispecific variants binding were calculated using GraphPad Prism software.
Results: The expressed trispecific constructs were analyzed for their binding to cells expressing endogenous CD3ε, 5T4 and NKG2A/NKG2D. […] (FIG. 45F).

Test [2] has as its target T2, hCD3epsilon-His (recombinant human CD3 epsilon) (human, UniProt P07766 23-126).
T2 construct: Bought protein; also called recombinant hCD3ε protein; human CD3ε
In words: ELISA on coated hCD3epsilon-His (FIG. 43A). How it is done: Methods: ELISA binding of Tribody/ProTribody antibody constructs to antigens: Dilute target protein (hCD3epsilon-His (cat # 10977-H08S, supplier Sino Biological); h5T4-His (cat# 19845-H08H, supplier Sino Biological); NKG2A-CD94-ECD-hFc, Lot:20200724002, provided by CP; or NKG2D-ECD-hFc, Lot: 20200413002, provided by CP) into PBS with final concentration of 0.01 µg/mL for hCD3epsilon-His, 0.3 µg/mL for h5T4-His, 1 µg/mL for NKG2A-CD94-ECD-hFc and 0.7 µg/mL for hNKG2D-ECD-hFc respectively and coat 100 µL/well on ELISA plate (cat: 9018, supplier Corning) respectively. Incubate O/N, 4° C. The plates were blocked with 250 µL 1% BSA in PBST for 1 hr at 37° C.Wash 4 times with PBST. All the washes are done using Biotek (Elx 405). All the Tribody set antibodies were diluted to 400 nM and make 4-fold serially dilutions (12 points, including 0 point). Add 100 µL/well diluted antibody constructs solution to plate, incubate for 1 hr at 37° C.Wash 4 times with PBST. Add 100 µL/well anti-human kappa light chain-HRP (1:10000), incubate for 0.5 hr at 37° C. Wash 4 times with PBST. 100 µL/well of TMB substrate was added and incubated at room temperature for 5 min. 100 µL/well of 1N HCl to terminate reaction. Plates were read using ELISA plate reader at 450 nm wavelength (instrunet SpectraMax M5e). […]

The target in test [3] is T3, h5T4-His (recombinant human 5T4) (human, UniProt Q13641 32-355, limits assumed).
T3 construct: Bought protein; also called recombinant 5T4
T3 sequence (looked up): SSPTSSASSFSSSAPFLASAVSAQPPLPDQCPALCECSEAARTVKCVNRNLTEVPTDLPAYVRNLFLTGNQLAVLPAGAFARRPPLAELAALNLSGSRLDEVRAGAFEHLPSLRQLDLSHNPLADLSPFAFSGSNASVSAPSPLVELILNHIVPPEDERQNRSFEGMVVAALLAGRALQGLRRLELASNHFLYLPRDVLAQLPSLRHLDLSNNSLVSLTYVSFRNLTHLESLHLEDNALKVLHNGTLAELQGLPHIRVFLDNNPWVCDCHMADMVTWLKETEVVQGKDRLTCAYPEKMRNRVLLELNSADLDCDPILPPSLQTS
As to the kind of experiment: ELISA on coated h5T4-His (FIG. 43B). The method, then: Methods: ELISA binding of Tribody/ProTribody antibody constructs to antigens: Dilute target protein (hCD3epsilon-His (cat # 10977-H08S, supplier Sino Biological); h5T4-His (cat# 19845-H08H, supplier Sino Biological); NKG2A-CD94-ECD-hFc, Lot:20200724002, provided by CP; or NKG2D-ECD-hFc, Lot: 20200413002, provided by CP) into PBS with final concentration of 0.01 µg/mL for hCD3epsilon-His, 0.3 µg/mL for h5T4-His, 1 µg/mL for NKG2A-CD94-ECD-hFc and 0.7 µg/mL for hNKG2D-ECD-hFc respectively and coat 100 µL/well on ELISA plate (cat: 9018, supplier Corning) respectively. Incubate O/N, 4° C. The plates were blocked with 250 µL 1% BSA in PBST for 1 hr at 37° C.Wash 4 times with PBST. All the washes are done using Biotek (Elx 405). All the Tribody set antibodies were diluted to 400 nM and make 4-fold serially dilutions (12 points, including 0 point). Add 100 µL/well diluted antibody constructs solution to plate, incubate for 1 hr at 37° C.Wash 4 times with PBST. Add 100 µL/well anti-human kappa light chain-HRP (1:10000), incubate for 0.5 hr at 37° C. Wash 4 times with PBST. 100 µL/well of TMB substrate was added and incubated at room temperature for 5 min. 100 µL/well of 1N HCl to terminate reaction. Plates were read using ELISA plate reader at 450 nm wavelength (instrunet SpectraMax M5e). Data Analysis was performed using Graphpad prism 5 software by using nonlinear regression (curve fit): log (agonist) vs. response, agonist is antibody concentration (nM) and response is OD value.

Test [4] concerns the target T4, 5T4 on cells (NCI-H226 endogenous; CHO over-expressing 5T4) (UniProt Q13641 32-420, limits assumed).
T4 construct: whole, on cells
T4 sequence (looked up): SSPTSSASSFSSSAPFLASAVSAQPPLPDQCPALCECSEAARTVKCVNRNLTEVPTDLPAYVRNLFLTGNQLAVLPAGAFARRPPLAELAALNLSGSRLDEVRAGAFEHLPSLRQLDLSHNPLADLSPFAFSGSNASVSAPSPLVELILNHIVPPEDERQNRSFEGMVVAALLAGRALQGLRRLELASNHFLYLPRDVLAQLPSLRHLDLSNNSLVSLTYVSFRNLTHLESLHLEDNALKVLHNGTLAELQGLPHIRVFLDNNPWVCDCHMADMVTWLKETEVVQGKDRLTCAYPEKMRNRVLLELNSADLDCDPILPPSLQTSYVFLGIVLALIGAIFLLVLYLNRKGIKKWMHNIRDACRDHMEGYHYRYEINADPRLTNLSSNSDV
In words: FACS on NCI-H226 cells, endogenous 5T4 (FIG. 45B). How it is done:
as §1, with “Suspension cultured cells was harvested directly, and adherent cell were digested using TrypLE Express Enzyme (cat: 12604-013, supplier Life technologies). Centrifuge at 1000 rpm for 5 min and discard the supernatant. Cells are suspended at a concentration of 2×10⁶/mL in FACS buffer (2% FBS in PBS) and add 100 µL/well of cell suspension to the plate (cat #3799, supplier Corning). Centrifuging the plates at 2000 rpm for 5 min and discard the supernatant. Re-suspend the cells in 100 µL/well of Tribody set antibodies (400 nM start, 4-fold dilution, 8 point including 0 point) and incubate the plate for 60 min at 4° C. Centrifuge the plate at 2000 rpm, 4° C. for 5 min and discard supernatant. Then” for “Then”, “Then wash the cells 3 times with FACS buffer and analyze the sample with FACS verse.” left out

T1 sequence (P26715 whole entry, chain 1 of 2): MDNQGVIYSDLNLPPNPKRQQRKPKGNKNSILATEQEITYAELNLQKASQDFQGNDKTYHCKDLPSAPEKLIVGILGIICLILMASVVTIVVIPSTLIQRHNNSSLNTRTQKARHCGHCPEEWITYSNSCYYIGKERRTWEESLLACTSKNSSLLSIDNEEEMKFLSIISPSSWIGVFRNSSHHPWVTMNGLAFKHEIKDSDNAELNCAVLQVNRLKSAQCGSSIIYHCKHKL
T1 sequence (Q13241 whole entry, chain 2 of 2): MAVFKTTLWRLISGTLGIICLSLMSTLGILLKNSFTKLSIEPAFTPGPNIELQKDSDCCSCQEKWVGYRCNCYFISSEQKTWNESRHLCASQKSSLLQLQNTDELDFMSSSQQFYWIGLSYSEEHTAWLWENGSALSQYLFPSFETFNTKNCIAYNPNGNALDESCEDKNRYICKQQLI
T2 sequence (P07766 23-126 limits assumed): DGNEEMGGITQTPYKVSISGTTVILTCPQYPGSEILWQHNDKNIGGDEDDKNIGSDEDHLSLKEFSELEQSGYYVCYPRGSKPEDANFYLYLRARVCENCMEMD

B1: IM-1062 Tribody (other)
heavy: GGSGGSEVQLVESGGGLVQPGGSLRLSCAASGFTFNTYAMNWVRQAPGKGLEWVARIRSKYNNYATYYADSVKDRFTISRDDSKNTLYLQMNSLRAEDTAVYYCVRHGNFGNSYVSWFAYWGQGTMVTVSSASTKGPSVFPLAPSSKSTSGGTAALGCLVKDYFPEPVTVSWNSGALTSGVHTFPAVLQSSGLYSLSSVVTVPSSSLGTQTYICNVNHKPSNTKVDKRVEPKSCPPCGGGGSDIQMTQSPSSLSASVGDRVTITCRASENIYSYLAWYQQKPGKAPKLLIYNAKTLAEGVPSRFSGSGSGTDFTLTISSLQPEDFATYYCQHHYGTPRTFGGGTKVEIKGGGGSGGGGSGGGGSGGGGSQVQLVQSGAEVKKPGASVKVSCKASGYTFTSYWMNWVRQAPGQGLEWMGRIDPYDSETHYAQKLQGRVTMTTDTSTSTAYMELRSLRSDDTAVYYCARGGYDFDVGTLYWFFDVWGQGTTVTVSS
light: GGSGGSQAVVTQEPSLTVSPGGTVTLTCRSSTGAVTTSNYANWVQQKPGQAPRGLIGGTNKRAPGTPARFSGSLLGGKAALTLSGVQPEDEAEYYCALWYSNLWVFGGGTKLTVLGQPKAAPSVTLFPPSSEELQANKATLVCLISDFYPGAVTVAWKADSSPVKAGVETTTPSKQSNNKYAASSYLSLTPEQWKSHRSYSCQVTHEGSTVEKTVAPTECPPCSGGGSDIQMTQSPSSLSASVGDRVTITCRASQGISNYLAWFQQKPGKAPKSLIYRANRLQSGVPSRFSGSGSGTDFTLTISSLQPEDVATYYCLQYDDFPWTFGQGTKLEIKGGGGSGGGGSGGGGSGGGGSQVQLVQSGAEVKKPGASVKVSCKASGYTFTSFWMHWVRQAPGQGLEWMGRIDPNRGGTEYNEKAKSRVTMTADKSTSTAYMELSSLRSEDTAVYYCAGGNPYYPMDYWGQGTTVTVSS
notes: Tri-specific antibody (Tribody): anti-CD3 epsilon Fab with an anti-5T4 scFv and an anti-NKG2A scFv, no regulatory domain; also called the Tribody format
B1: the EC50 in test [1] worked out at 16 nM; in test [2], 1.69 nM; in test [3] it was 45 nM; in test [4], 1.78 nM.
